# Source: the RNAGym collection of RNA variant scans (doi:10.1093/molbev/msab373)
# B1: Azoarcus group I ribozyme (parent)
# chain: GUGCCUUGCGCCGGGAAACCACGCAAGGGAUGGUGUCAAAUUCGGCGAAACCUAAGCGCCCGCCCGGGCGUAUGGCAACGCCGAGCCAAGCUUCGGCGCCUGCGCCGAUGAAGGUGUAGAGACUAGACGGCACCCACCUAAGGCAAACGCUAUGGUGAAGGCAUAGUCCAGGGAGUGGCGAAAGUCACACAAACCGG
# Variants of: B1
# Test: reverse-splicing fitness (ratio to wild type); higher = more active; in vitro selection; Mg2+ level not given
# Method in brief: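 An in vitro group I ribozyme library with randomized positions was T7-transcribed and gel-purified. In triplicate, 10 pmol RNA in EPPS pH 7.5 was reacted with 50 pmoles of a 30-nt RNA substrate for 1 h at 37 °C across several added MgCl2 levels (1–48 mM), then stopped with EDTA. Products were reverse transcribed from a substrate-complementary primer, PCR-amplified and sequenced (HiSeq 4000). Fitness is a variant's read proportion after selection over that before, normalised to wild type.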
row,Variant,reverse-splicing fitness
1,GUGCCUUGCGCCGGGAAACCACGCAAGGGAUGGUGUCAAAUUCGGCGAAACCUAAGCGCCCGCCCGGGCGUAUGGCAACGCCGAGCCAAGCUUCGGCGCCUGCGCCGAUGGAGGUGUAGAGACUAGACGGCACCCACCUAAGGCUAACGCUAUGGUGAAGGCAUAGUCCAGGGAGGGGCGAAAGUCACACAAACCGG [A111G A145U U176G],0.524
2,GUGCCUUGCGCCGGGAAACCACGCAAGGGAUGGUGUCAAAUUCGGCGAAACCUAAGCGCCCGCCCGGGCGUAUGGCAACGCCGAGCCAAGCUUCGGCGCCUGCGCCGAUGGAGGUGUAGAGACUAGACGGCACCCACCUAAGGCUAACGCUAUGGUGAAGGCAUAGUCCAGGGAGAGGCGAAAGUCACACAAACCGG [A111G A145U U176A],0.755
3,GUGCCUUGCGCCGGGAAACCACGCAAGGGAUGGUGUCAAAUUCGGCGAAACCUAAGCGCCCGCCCGGGCGUAUGGCAACGCCGAGCCAAGCUUCGGCGCCUGCGCCGAUGGAGGUGUAGAGACUAGACGGCACCCACCUAAGGCUAACGCUAUGGUGAAGGCAUAGUCCAGGGAGCGGCGAAAGUCACACAAACCGG [A111G A145U U176C],0.809
4,GUGCCUUGCGCCGGGAAACCACGCAAGGGAUGGUGUCAAAUUCGGCGAAACCUAAGCGCCCGCCCGGGCGUAUGGCAACGCCGAGCCAAGCUUCGGCGCCUGCGCCGAUGGAGGUGUAGAGACUAGACGGCACCCACCUAAGGCUAACGUUAUGGUGAAGGCAUAGUCCAGGGAGCGGCGAAAGUCACACAAACCGG [A111G A145U C150U U176C],0.697
5,GUGCCUUGCGCCGGGAAACCACGCAAGGGAUGGUGUCAAAUUCGGCGAAACCUAAGCGCCCGCCCGGGCGUAUGGCAACGCCGAGCCAAGCUUCGGCGCCUGCGCCGAUGGAGGUGUAGAGACUAGACGGCACCCACCUAAGGCUAACGUUAUGGUGAAGGCAUAGUCCAGGGAGGGGCGAAAGUCACACAAACCGG [A111G A145U C150U U176G],0.317
6,GUGCCUUGCGCCGGGAAACCACGCAAGGGAUGGUGUCAAAUUCGGCGAAACCUAAGCGCCCGCCCGGGCGUAUGGCAACGCCGAGCCAAGCUUCGGCGCCUGCGCCGAUGGAGGUGUAGAGACUAGACGGCACCCACCUAAGGCUAACGUUAUGGUGAAGGCAUAGUCCAGGGAGAGGCGAAAGUCACACAAACCGG [A111G A145U C150U U176A],0.677
7,GUGCCUUGCGCCGGGAAACCACGCAAGGGAUGGUGUCAAAUUCGGCGAAACCUAAGCGCCCGCCCGGGCGUAUGGCAACGCCGAGCCAAGCUUCGGCGCCUGCGCCGAUGGAGGUGUAGAGACUAGACGGCACCCACCUAAGGCUAACGCUAUGGUGAAGGCAUAGUCUAGGGAGGGGCGAAAGUCACACAAACCGG [A111G A145U C169U U176G],0.00767
8,GUGCCUUGCGCCGGGAAACCACGCAAGGGAUGGUGUCAAAUUCGGCGAAACCUAAGCGCCCGCCCGGGCGUAUGGCAACGCCGAGCCAAGCUUCGGCGCCUGCGCCGAUGGAGGUGUAGAGACUAGACGGCACCCACCUAAGGCUAACGCUAUGGUGAAGGCAUAGUCUAGGGAGAGGCGAAAGUCACACAAACCGG [A111G A145U C169U U176A],0.0488
9,GUGCCUUGCGCCGGGAAACCACGCAAGGGAUGGUGUCAAAUUCGGCGAAACCUAAGCGCCCGCCCGGGCGUAUGGCAACGCCGAGCCAAGCUUCGGCGCCUGCGCCGAUGGAGGUGUAGAGACUAGACGGCACCCACCUAAGGCUAACGCUAUGGUGAAGGCAUAGUCUAGGGAGCGGCGAAAGUCACACAAACCGG [A111G A145U C169U U176C],0.0656
10,GUGCCUUGCGCCGGGAAACCACGCAAGGGAUGGUGUCAAAUUCGGCGAAACCUAAGCGCCCGCCCGGGCGUAUGGCAACGCCGAGCCAAGCUUCGGCGCCUGCGCCGAUGGAGGUGUAGAGACUAGACGGCACCCACCUAAGGCUAACGUUAUGGUGAAGGCAUAGUCUAGGGAGCGGCGAAAGUCACACAAACCGG [A111G A145U C150U C169U U176C],0.056
11,GUGCCUUGCGCCGGGAAACCACGCAAGGGAUGGUGUCAAAUUCGGCGAAACCUAAGCGCCCGCCCGGGCGUAUGGCAACGCCGAGCCAAGCUUCGGCGCCUGCGCCGAUGGAGGUGUAGAGACUAGACGGCACCCACCUAAGGCUAACGUUAUGGUGAAGGCAUAGUCUAGGGAGAGGCGAAAGUCACACAAACCGG [A111G A145U C150U C169U U176A],0.0375
12,GUGCCUUGCGCCGGGAAACCACGCAAGGGAUGGUGUCAAAUUCGGCGAAACCUAAGCGCCCGCCCGGGCGUAUGGCAACGCCGAGCCAAGCUUCGGCGCCUGCGCCGAUGGAGGUGUAGAGACUAGACGGCACCCACCUAAGGCUAACGUUAUGGUGAAGGCAUAGUCUAGGGAGGGGCGAAAGUCACACAAACCGG [A111G A145U C150U C169U U176G],0.00691
13,GUGCCUUGCGCCGGGAAACCACGCAAGGGAUGGUGUCAAAUUCGGCGAAACCUAAGCGCCCGCCCGGGCGUAUGGCAACGCCGAGCCAAGCUUCGGCGCCUGCGCCGAUGGAGGUGUAGAGACUAGACGGCACCCACCUAAGGCUAACGCUAUGGUGAAGGCAUAGUCAAGGGAGGGGCGAAAGUCACACAAACCGG [A111G A145U C169A U176G],0.00483
14,GUGCCUUGCGCCGGGAAACCACGCAAGGGAUGGUGUCAAAUUCGGCGAAACCUAAGCGCCCGCCCGGGCGUAUGGCAACGCCGAGCCAAGCUUCGGCGCCUGCGCCGAUGGAGGUGUAGAGACUAGACGGCACCCACCUAAGGCUAACGCUAUGGUGAAGGCAUAGUCAAGGGAGCGGCGAAAGUCACACAAACCGG [A111G A145U C169A U176C],0.0203
15,GUGCCUUGCGCCGGGAAACCACGCAAGGGAUGGUGUCAAAUUCGGCGAAACCUAAGCGCCCGCCCGGGCGUAUGGCAACGCCGAGCCAAGCUUCGGCGCCUGCGCCGAUGGAGGUGUAGAGACUAGACGGCACCCACCUAAGGCUAACGCUAUGGUGAAGGCAUAGUCAAGGGAGAGGCGAAAGUCACACAAACCGG [A111G A145U C169A U176A],0.0114
